From paper PMC2990333 come the findings set out here.

Assay [1] addresses Aedes aegypti sterol carrier protein-2-like-2 (SCP-2-L2) (Aedes aegypti). Put plainly: crystal structure; ligand-bound X-ray structure at 1.7-angstrom resolution, with bound fatty acid.
The target in assay [2] is OBP48 expressed in lepidopteran cells (Anopheles gambiae). Put plainly: co-IP + cross-linking; OBPs expressed in lepidopteran cells, examined for in vitro interactions in the absence of exogenously added ligands; chemical cross-linking.
For assay [3], the target named is 25kD protein (immunoreactive P29 form of Drosophila) (Drosophila melanogaster). Description: not stated; dimerisation of the 25kD protein under in vitro conditions.

What is called stoichiometry N is a count of units in the complex or per binding partner. In turn, “Aedes aegypti sterol carrier protein-2-like-2 (SCP-2-L2) (natural protein)” gave a stoichiometry N in assay [1] of 2.
Consider “OBP48 expressed in lepidopteran cells (natural protein)”, for which, in assay [2], the stoichiometry N is 2.
“25kD protein (immunoreactive P29 form of Drosophila) (natural protein)”: the stoichiometry N in assay [3] was 2.
